Source: paper PMC8809517, “Cofactor-independent RNA editing by a synthetic S-type PPR protein”

Legend:
Test in all cases: high-throughput RNA pulldown from lysate on Ni-NTA beads; HRP: 50 mM Tris pH 8, 150 mM NaCl, 1 mM beta-mercaptoethanol, 50 ug/ml BSA, 3 ug/ml yeast RNA, 0.5% heparin; ITC and FP: Tris pH 8, 200 mM KCl, 5% glycerol; MST: 50 mM Tris pH 8, 200 mM NaCl, 1 mM DTT, BSA, heparin, 0.05% Tween 20
Conditions in all cases: tags: N-terminal His-eGFP
[1] = target: T1, GFP-9S library array, motif 4 ND D124Q (synthetic construct, D124Q)
T1 chain: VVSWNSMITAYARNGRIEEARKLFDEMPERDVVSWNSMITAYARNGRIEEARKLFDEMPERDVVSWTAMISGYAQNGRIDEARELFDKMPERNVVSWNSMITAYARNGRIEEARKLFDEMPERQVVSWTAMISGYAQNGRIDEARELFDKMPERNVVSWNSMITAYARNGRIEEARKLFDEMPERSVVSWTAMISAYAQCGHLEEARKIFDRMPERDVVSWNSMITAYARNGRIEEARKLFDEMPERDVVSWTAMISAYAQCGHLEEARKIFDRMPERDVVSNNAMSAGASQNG

[2] = target: T2, GFP-9S library array, motif 4 ND N98W;D124V (synthetic construct, N98W;D124V)
T2 chain: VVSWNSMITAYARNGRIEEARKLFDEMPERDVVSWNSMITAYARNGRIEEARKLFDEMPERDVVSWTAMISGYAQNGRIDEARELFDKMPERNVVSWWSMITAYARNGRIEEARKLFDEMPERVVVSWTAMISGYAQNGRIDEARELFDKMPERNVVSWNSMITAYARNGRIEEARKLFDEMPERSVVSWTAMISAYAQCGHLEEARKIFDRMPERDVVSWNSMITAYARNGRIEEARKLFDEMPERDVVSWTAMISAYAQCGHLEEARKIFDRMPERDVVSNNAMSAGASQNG

[3] = target: T3, GFP-9S library array, motif 4 ND N98G;D124I (synthetic construct, N98G;D124I)
T3 chain: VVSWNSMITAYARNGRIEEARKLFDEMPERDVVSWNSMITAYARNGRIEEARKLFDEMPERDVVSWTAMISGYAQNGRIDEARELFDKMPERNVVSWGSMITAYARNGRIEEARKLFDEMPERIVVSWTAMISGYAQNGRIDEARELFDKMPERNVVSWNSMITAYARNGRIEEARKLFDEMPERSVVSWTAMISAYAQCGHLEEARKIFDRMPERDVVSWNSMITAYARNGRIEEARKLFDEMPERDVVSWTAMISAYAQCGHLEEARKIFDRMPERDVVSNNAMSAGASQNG

[4] = target: T4, GFP-9S library array, motif 4 ND N98Q;D124I (synthetic construct, N98Q;D124I)
T4 chain: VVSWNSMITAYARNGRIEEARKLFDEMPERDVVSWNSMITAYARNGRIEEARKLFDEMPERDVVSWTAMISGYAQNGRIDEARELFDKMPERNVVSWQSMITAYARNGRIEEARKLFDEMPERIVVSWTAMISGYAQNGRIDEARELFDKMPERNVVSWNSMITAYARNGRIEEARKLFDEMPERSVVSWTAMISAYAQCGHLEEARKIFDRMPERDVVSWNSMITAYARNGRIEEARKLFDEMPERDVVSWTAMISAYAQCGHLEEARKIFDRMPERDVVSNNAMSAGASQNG

[5] = target: T5, GFP-9S library array, motif 4 ND N98C;D124K (synthetic construct, N98C;D124K)
T5 chain: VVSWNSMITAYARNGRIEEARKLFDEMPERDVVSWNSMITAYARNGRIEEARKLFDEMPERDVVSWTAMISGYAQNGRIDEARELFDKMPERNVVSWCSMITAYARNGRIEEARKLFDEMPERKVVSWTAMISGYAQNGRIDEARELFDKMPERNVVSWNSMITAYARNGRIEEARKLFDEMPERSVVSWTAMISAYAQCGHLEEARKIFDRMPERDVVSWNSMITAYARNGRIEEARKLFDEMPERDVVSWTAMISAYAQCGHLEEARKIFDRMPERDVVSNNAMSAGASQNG

Binder	Kd ([1]; label: 5' IRDye 800CW)	Kd ([2]; label: 5' IRDye 800CW)	Kd ([3]; label: 5' IRDye 800CW)	Kd ([4]; label: 5' IRDye 800CW)	Kd ([5]; label: 5' IRDye 800CW)	Kd ([1]; label: 5' Cy5)	Kd ([2]; label: 5' Cy5)	Kd ([3]; label: 5' Cy5)	Kd ([4]; label: 5' Cy5)	Kd ([5]; label: 5' Cy5)
AUUAUACGUGA (ssRNA) [IR-rpoA-U]	25.9 nM	100 nM	205 nM	344 nM	139 nM	–	–	–	–	–
AUUAGACGUGA (ssRNA) [Cy5-rpoA-G]	–	–	–	–	–	898 nM	50.8 nM	113 nM	102 nM	91.1 nM
AUUACACGUGA (ssRNA) [Cy5-rpoA]	–	–	–	–	–	68 nM	41.1 nM	105 nM	142 nM	96.2 nM
AUUAAACGUGA (ssRNA) [IR-rpoA-A]	490 nM	95.6 nM	315 nM	315 nM	66.3 nM	–	–	–	–	–
